Laboratory results: patent US20020164759A1 (UNIVERSITY OF GEORGIA RESEARCH FOUNDATION, published 2002)

Assays:
[1] = biological target: Porphyromonas gingivalis dipeptidylpeptidase-7 (DPP-7), purified from strain HG66 (Porphyromonas gingivalis) (UniProt B2RKV3); test: cell-based or functional assay
[2] = biological target: T1, Porphyromonas gingivalis dipeptidylpeptidase-7 (DPP-7), purified from strain HG66 (Porphyromonas gingivalis, UniProt B2RKV3 24-712); test: cell-based or functional assay
T1 sequence: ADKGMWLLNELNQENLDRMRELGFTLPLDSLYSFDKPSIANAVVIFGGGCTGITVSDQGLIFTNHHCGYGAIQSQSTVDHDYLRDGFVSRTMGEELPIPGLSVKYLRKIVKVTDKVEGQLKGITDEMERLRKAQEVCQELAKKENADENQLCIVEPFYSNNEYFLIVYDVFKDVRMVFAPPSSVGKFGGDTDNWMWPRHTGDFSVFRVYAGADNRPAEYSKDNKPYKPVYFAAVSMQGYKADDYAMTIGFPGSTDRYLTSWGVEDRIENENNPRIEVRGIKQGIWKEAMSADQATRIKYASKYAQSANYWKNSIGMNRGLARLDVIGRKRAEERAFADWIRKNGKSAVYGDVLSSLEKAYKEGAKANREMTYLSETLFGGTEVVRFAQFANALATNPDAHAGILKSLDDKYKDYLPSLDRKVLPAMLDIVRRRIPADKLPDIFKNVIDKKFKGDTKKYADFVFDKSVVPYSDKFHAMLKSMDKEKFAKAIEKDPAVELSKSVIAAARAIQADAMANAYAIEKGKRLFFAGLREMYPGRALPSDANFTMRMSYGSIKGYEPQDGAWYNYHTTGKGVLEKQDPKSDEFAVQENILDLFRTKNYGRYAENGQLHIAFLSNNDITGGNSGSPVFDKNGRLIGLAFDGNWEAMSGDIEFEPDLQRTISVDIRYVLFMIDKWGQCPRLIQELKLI

[3] = biological target: T2, Ile-Ala-Arg-Arg-His-Pro-Tyr-Phe-Leu (SEQ ID NO:11)
T2 chain: IARRHPYFL

[4] = biological target: T3, Lys-Ile-Ala-Gly-Tyr-His-Leu-Glu-Leu (SEQ ID NO:12)
T3 chain: KIAGYHLEL

[5] = biological target: T4, Phe-Leu-Arg-Glu-Pro-Val-Ile-Phe-Leu (SEQ ID NO:13)
T4 chain: FLREPVIFL

[6] = biological target: T5, Ala-Pro-Val-Arg-Ser-Leu (SEQ ID NO:16)
T5 chain: APVRSL

[7] = biological target: carboxymethylated lysosyme
[8] = biological target: T6, Ser-Pro-Tyr-Ser-Ser-Glu-Thr-Thr (SEQ ID NO:15)
T6 chain: SPYSSETT

[9] = biological target: gelatin
[10] = biological target: type I collagen
[11] = biological target: T7, Gln-Lys-Gln-Met-Ser-Asp-Arg-Arg-Glu (SEQ ID NO:17)
T7 chain: QKQMSDRRE

[12] = biological target: T8, Trp-Ala-Gly-Gly-Asp-Ala-Ser-Gly-Glu (SEQ ID NO:10)
T8 chain: WAGGDASGE

[13] = biological target: insulin β chain
[14] = biological target: T9, Trp-His-Trp-Leu-Glu-Leu-Lys-Pro-Gly-Glu-Pro-Met-Tyr (SEQ ID NO:14)
T9 chain: WHWLELKPGEPMY

[15] = biological target: azocazein

With Aprotinin (from UniProt P00974 36-93) the % of residual activity of DPP-7 against H-Ala-Phe-pNA after preincubation with 0.5 mg/ml inhibitor [1] was 128%.

With RF [Arg-Phe] the “% of residual activity of DPP-7 against H-Ala-Phe-pNA after preincubation with 100 mM compound” value (shortened to “% of residual activity … with 100 mM compound”) [2] was 69%.

With AG [Ala-Gly] the “% of residual activity … with 100 mM compound” value [2] was 96%.

With GA [Gly-Ala] the “% of residual activity … with 100 mM compound” value [2] was 102%.

B1: Porphyromonas gingivalis dipeptidylpeptidase-7 (DPP-7), purified from strain HG66 (protein)
chain: T1 sequence
B1 was tested, and the “Peptides cleaved (hydrolysis products separated by reverse-phase HPLC, mass spectrometry)” value (“Peptides cleaved” for short) [3] was “Ile-Ala-↓-Arg-Arg-His-Pro-Tyr-Phe-Leu”, the “Peptides cleaved” value [4] was “Lys-Ile-↓-Ala-Gly-Tyr-His-Leu-Glu-Leu” and the “Peptides cleaved” value [5] was “Phe-Leu-↓-Arg-Glu-Pro-Val-Ile-Phe-Leu”. The “Peptides not cleaved (reverse-phase HPLC, mass spectrometry)” value [6] was “Peptides not cleaved”, the endopeptidase activity [7] was “did not show any endopeptidase activity” and the “Peptides not cleaved (reverse-phase HPLC, mass spectrometry)” value [8] was “Peptides not cleaved”. For the same molecule, the endopeptidase activity [9] was “did not show any endopeptidase activity”, the endopeptidase activity [10] was “did not show any endopeptidase activity” and the “Peptides not cleaved (reverse-phase HPLC, mass spectrometry)” value [11] was “Peptides not cleaved”. The “Peptides cleaved” value [12] was “Trp-Ala-↓-Gly-Gly-Asp-Ala-Ser-Gly-Glu”, the endopeptidase activity [13] was “did not show any endopeptidase activity” and the “Peptides not cleaved (reverse-phase HPLC, mass spectrometry)” value [14] was “Peptides not cleaved”. For the same molecule, the endopeptidase activity [15] was “did not show any endopeptidase activity”.
